Patent US20150023971A1

How the values were obtained:
[1] = molecular target: T1, …; assay: SPOT length analysis, dot 29, anti-histidine detection
T1 sequence (peptide): RIFRSSDFA

[2] = molecular target: T2, …; assay: SPOT length analysis, dot 12, anti-histidine detection
T2 sequence (peptide): IFRSSDFAKNFV

[3] = molecular target: T3, KNFVQTD; assay: SPOT length analysis, dot 55, anti-histidine detection
T3 sequence (peptide): KNFVQTD

[4] = molecular target: T4, …; assay: SPOT length analysis, dot 4, HRP-S-protein detection
T4 sequence (peptide): RIFRSSDFAKNFVQ

[5] = molecular target: T5, …; assay: SPOT length analysis, dot 28, anti-histidine detection
T5 sequence (peptide): DFAKNFVQTD

[6] = molecular target: T6, RIFRS; assay: SPOT length analysis, dot 67, anti-histidine detection
T6 sequence (peptide): RIFRS

[7] = molecular target: T7, …; assay: SPOT length analysis, dot 30, HRP-S-protein detection
T7 sequence (peptide): IFRSSDFAK

[8] = molecular target: T8, …; assay: SPOT length analysis, dot 7, anti-histidine detection
T8 sequence (peptide): RIFRSSDFAKNFV

[9] = molecular target: T9, …; assay: SPOT length analysis, dot 14, anti-histidine detection
T9 sequence (peptide): RSSDFAKNFVQT

[10] = molecular target: T10, AKNFVQT; assay: SPOT length analysis, dot 54, HRP-S-protein detection
T10 sequence (peptide): AKNFVQT

[11] = molecular target: T11, SSDFAKN; assay: SPOT length analysis, dot 50, HRP-S-protein detection
T11 sequence (peptide): SSDFAKN

[12] = molecular target: T3, KNFVQTD; assay: SPOT length analysis, dot 55, HRP-S-protein detection
[13] = molecular target: T12, NFVQTD; assay: SPOT length analysis, dot 66, HRP-S-protein detection
T12 sequence (peptide): NFVQTD

[14] = molecular target: T13, FRSSDFAK; assay: SPOT length analysis, dot 39, HRP-S-protein detection
T13 sequence (peptide): FRSSDFAK

[15] = molecular target: T14, …; assay: SPOT length analysis, dot 3, HRP-S-protein detection
T14 sequence (peptide): IFRSSDFAKNFVQTD

[16] = molecular target: T15, IFRSSDFA; assay: SPOT length analysis, dot 38, anti-histidine detection
T15 sequence (peptide): IFRSSDFA

[17] = molecular target: T6, RIFRS; assay: SPOT length analysis, dot 67, HRP-S-protein detection
[18] = molecular target: T16, …; assay: SPOT length analysis, dot 10, HRP-S-protein detection
T16 sequence (peptide): RSSDFAKNFVQTD

[19] = molecular target: T17, AKNFVQ; assay: SPOT length analysis, dot 64, anti-histidine detection
T17 sequence (peptide): AKNFVQ

[20] = molecular target: T18, IFRSSD; assay: SPOT length analysis, dot 57, HRP-S-protein detection
T18 sequence (peptide): IFRSSD

[21] = molecular target: T19, FAKNFVQ; assay: SPOT length analysis, dot 53, HRP-S-protein detection
T19 sequence (peptide): FAKNFVQ

[22] = molecular target: T11, SSDFAKN; assay: SPOT length analysis, dot 50, anti-histidine detection
[23] = molecular target: T20, RSSDFAKN; assay: SPOT length analysis, dot 40, anti-histidine detection
T20 sequence (peptide): RSSDFAKN

[24] = molecular target: T16, …; assay: SPOT length analysis, dot 10, anti-histidine detection
[25] = molecular target: T21, SDFAKNFV; assay: SPOT length analysis, dot 42, HRP-S-protein detection
T21 sequence (peptide): SDFAKNFV

[26] = molecular target: T22, DFAKNF; assay: SPOT length analysis, dot 62, anti-histidine detection
T22 sequence (peptide): DFAKNF

[27] = molecular target: T23, NFVQT; assay: SPOT length analysis, dot 77, anti-histidine detection
T23 sequence (peptide): NFVQT

[28] = molecular target: T24, sortilin 4-mer peptide RIFR (length analysis); assay: SPOT length analysis, dot 79, HRP-S-protein detection
T24 sequence (peptide, C-terminus anchored to the cellulose membrane through a beta-alanine linker): RIFR

[29] = molecular target: T25, KNFV; assay: SPOT length analysis, dot 88, anti-histidine detection
T25 sequence (peptide): KNFV

[30] = molecular target: T26, …; assay: SPOT length analysis, dot 34, HRP-S-protein detection
T26 sequence (peptide): SDFAKNFVQ

[31] = molecular target: T18, IFRSSD; assay: SPOT length analysis, dot 57, anti-histidine detection
[32] = molecular target: T27, …; assay: SPOT length analysis, dot 32, anti-histidine detection
T27 sequence (peptide): RSSDFAKNF

[33] = molecular target: T28, …; assay: SPOT length analysis, dot 33, anti-histidine detection
T28 sequence (peptide): SSDFAKNFV

[34] = molecular target: T29, SSDFA; assay: SPOT length analysis, dot 71, anti-histidine detection
T29 sequence (peptide): SSDFA

[35] = molecular target: T4, …; assay: SPOT length analysis, dot 4, anti-histidine detection
[36] = molecular target: T30, …; assay: SPOT length analysis, dot 23, HRP-S-protein detection
T30 sequence (peptide): IFRSSDFAKN

[37] = molecular target: T31, DFAKN; assay: SPOT length analysis, dot 73, HRP-S-protein detection
T31 sequence (peptide): DFAKN

[38] = molecular target: T32, DFAKNFVQ; assay: SPOT length analysis, dot 43, anti-histidine detection
T32 sequence (peptide): DFAKNFVQ

[39] = molecular target: T1, …; assay: SPOT length analysis, dot 29, HRP-S-protein detection
[40] = molecular target: T12, NFVQTD; assay: SPOT length analysis, dot 66, anti-histidine detection
[41] = molecular target: T30, …; assay: SPOT length analysis, dot 23, anti-histidine detection
[42] = molecular target: T27, …; assay: SPOT length analysis, dot 32, HRP-S-protein detection
[43] = molecular target: T33, …; assay: SPOT length analysis, dot 20, anti-histidine detection
T33 sequence (peptide): SSDFAKNFVQT

[44] = molecular target: T34, KNFVQ; assay: SPOT length analysis, dot 76, HRP-S-protein detection
T34 sequence (peptide): KNFVQ

[45] = molecular target: T31, DFAKN; assay: SPOT length analysis, dot 73, anti-histidine detection
[46] = molecular target: T35, …; assay: SPOT length analysis, dot 13, anti-histidine detection
T35 sequence (peptide): FRSSDFAKNFVQ

[47] = molecular target: T36, sortilin peptide RIFRSSDF on SPOT membrane; assay: SPOT length analysis, dot 37, anti-histidine detection
T36 sequence (peptide, C-terminus anchored to the cellulose membrane through a beta-alanine linker): RIFRSSDF

[48] = molecular target: T37, …; assay: SPOT length analysis, dot 6, HRP-S-protein detection
T37 sequence (peptide): FRSSDFAKNFVQTD

[49] = molecular target: T38, …; assay: SPOT length analysis, dot 24, anti-histidine detection
T38 sequence (peptide): FRSSDFAKNF

B1: recombinant his-S-tagged pro-domain of human BDNF (residues Ala1-Arg110), from pET-30 Xa/LIC, E. coli (protein, not shown: small tags and cut ends)
chain: APMKEANIRGQGGLAYPGVRTHGTLESVNGPKAGSGLTSLADTFEHVIEELLDEDQKVRPNEENNKDADLYTSRVMLSSQVPLEPPLLFLLEEYKNYLDAANMSMRVRR
BLU His [1]: 43400 BLU | BLU His [2]: 45100 BLU | BLU His [3]: 18300 BLU | BLU Sprotein [4]: 172000 BLU | BLU His [5]: 17400 BLU | BLU His [6]: 115000 BLU | BLU Sprotein [7]: 25700 BLU | BLU His [8]: 102000 BLU | BLU His [9]: 24700 BLU | BLU Sprotein [10]: 16700 BLU | BLU Sprotein [11]: 15900 BLU | BLU Sprotein [12]: 16800 BLU | BLU Sprotein [13]: 14500 BLU | BLU Sprotein [14]: 19200 BLU | BLU Sprotein [15]: 76200 BLU | BLU His [16]: 21400 BLU | BLU Sprotein [17]: 137000 BLU | BLU Sprotein [18]: 20700 BLU | BLU His [19]: 15600 BLU | BLU Sprotein [20]: 18100 BLU | BLU Sprotein [21]: 20300 BLU | BLU His [22]: 16700 BLU | BLU His [23]: 18700 BLU | BLU His [24]: 19800 BLU | BLU Sprotein [25]: 15500 BLU | BLU His [26]: 15200 BLU | BLU His [27]: 17300 BLU | BLU Sprotein [28]: 166000 BLU | BLU His [29]: 14900 BLU | BLU Sprotein [30]: 18900 BLU | BLU His [31]: 17900 BLU | BLU His [32]: 21100 BLU | BLU His [33]: 18900 BLU | BLU His [34]: 15800 BLU | BLU His [35]: 141000 BLU | BLU Sprotein [36]: 29800 BLU | BLU Sprotein [37]: 15600 BLU | BLU His [38]: 15500 BLU | BLU Sprotein [39]: 60900 BLU | BLU His [40]: 15400 BLU | BLU His [41]: 19700 BLU | BLU Sprotein [42]: 19500 BLU | BLU His [43]: 16700 BLU | BLU Sprotein [44]: 15700 BLU | BLU His [45]: 17800 BLU | BLU His [46]: 25800 BLU | BLU His [47]: 116000 BLU | BLU Sprotein [48]: 38100 BLU | BLU His [49]: 20100 BLU
